Tests used:
[1] = biological target: HLA-B*15:09; assay: IEDB peptide-MHC binding, purified MHC/direct/fluorescence; filed as Kd, often an IC50 or EC50 that approximates it; ≥ and ≤ were set here for values at or beyond the usual limits of such assays
[2] = biological target: HLA-B*39:01; assay: IEDB peptide-MHC binding, purified MHC/competitive/fluorescence; filed as Kd, often an IC50 or EC50 that approximates it; ≥ and ≤ were set here for values at or beyond the usual limits of such assays
[3] = biological target: HLA-B*57:01; assay: IEDB peptide-MHC binding, purified MHC/direct/fluorescence; filed as Kd, often an IC50 or EC50 that approximates it; ≥ and ≤ were set here for values at or beyond the usual limits of such assays
[4] = biological target: HLA-A*11:01; assay: as above
[5] = biological target: HLA-B*58:01; assay: as above
[6] = biological target: HLA-A*69:01; assay: as above
[7] = biological target: HLA-B*48:01; assay: as above
[8] = biological target: HLA-A*03:01; assay: as above
[9] = biological target: HLA-B*40:01; assay: as above
[10] = biological target: HLA-A*01:01; assay: as above
[11] = biological target: HLA-B*07:02; assay: as above
[12] = biological target: HLA-B*51:01; assay: as above; settings: source organism: Influenza A virus (A/duck/Hokkaido/1130/01(H1N1))
[13] = biological target: HLA-B*27:05; assay: as above
[14] = biological target: HLA-B*18:01; assay: as above
[15] = biological target: HLA-B*46:01; assay: as above
[16] = biological target: HLA-B*15:17; assay: as above; settings: source organism: Influenza A virus (A/duck/Hokkaido/1130/01(H1N1))
[17] = biological target: HLA-B*15:01; assay: as above
[18] = biological target: HLA-A*02:01; assay: as above
[19] = biological target: HLA-A*02:03; assay: IEDB peptide-MHC binding, purified MHC/competitive/fluorescence; filed as Kd, often an IC50 or EC50 that approximates it; ≥ and ≤ were set here for values at or beyond the usual limits of such assays; settings: source organism: Influenza A virus (A/81/HO)
[20] = biological target: HLA-A*31:01; assay: as above
[21] = biological target: HLA-B*39:01; assay: IEDB peptide-MHC binding, purified MHC/direct/fluorescence; filed as Kd, often an IC50 or EC50 that approximates it; ≥ and ≤ were set here for values at or beyond the usual limits of such assays
[22] = biological target: HLA-A*02:19; assay: as above; settings: source organism: Rickettsia prowazekii
[23] = biological target: HLA-A*02:11; assay: as above; settings: source organism: Rickettsia prowazekii
[24] = biological target: HLA-A*03:01; assay: IEDB peptide-MHC binding, purified MHC/competitive/fluorescence; filed as Kd, often an IC50 or EC50 that approximates it; ≥ and ≤ were set here for values at or beyond the usual limits of such assays
[25] = biological target: HLA-B*08:01; assay: IEDB peptide-MHC binding, purified MHC/direct/fluorescence; filed as Kd, often an IC50 or EC50 that approximates it; ≥ and ≤ were set here for values at or beyond the usual limits of such assays
[26] = biological target: HLA-A*24:02; assay: as above
[27] = biological target: HLA-A*31:01; assay: as above
[28] = biological target: HLA-B*44:02; assay: as above
[29] = biological target: HLA-A*24:02; assay: IEDB peptide-MHC binding, purified MHC/competitive/fluorescence; ≥ and ≤ were set here for values at or beyond the usual limits of such assays; settings: source organism: Zaire ebolavirus
[30] = biological target: HLA-B*07:02; assay: as above
[31] = biological target: HLA-B*15:01; assay: as above; settings: source organism: Zaire ebolavirus
[32] = biological target: HLA-A*29:02; assay: IEDB peptide-MHC binding, purified MHC/competitive/fluorescence; filed as Kd, often an IC50 or EC50 that approximates it; ≥ and ≤ were set here for values at or beyond the usual limits of such assays; settings: source organism: Campylobacter jejuni subsp. jejuni NCTC 11168 = ATCC 700819
[33] = biological target: HLA-B*15:01; assay: as above; settings: source organism: Salmonella enterica subsp. enterica serovar Typhi
[34] = biological target: HLA-A*29:02; assay: IEDB peptide-MHC binding, purified MHC/direct/fluorescence; filed as Kd, often an IC50 or EC50 that approximates it; ≥ and ≤ were set here for values at or beyond the usual limits of such assays
[35] = biological target: HLA-A*02:01; assay: IEDB peptide-MHC binding, purified MHC/competitive/fluorescence; ≥ and ≤ were set here for values at or beyond the usual limits of such assays; settings: source organism: Zaire ebolavirus
[36] = biological target: HLA-A*03:01; assay: as above; settings: source organism: Zaire ebolavirus
[37] = source organism: Influenza A virus (A/duck/Hokkaido/1130/01(H1N1))
[38] = source organism: Vibrio parahaemolyticus AQ3810
[39] = source organism: Rickettsia prowazekii
[40] = source organism: Escherichia coli O139:H28 str. E24377A
[41] = source organism: Bacillus anthracis
[42] = source organism: Influenza A virus (A/Puerto Rico/8/34/Mount Sinai(H1N1))
[43] = source organism: Influenza A virus (A/swine/Korea/S190/2004(H9N2))
[44] = source organism: Zaire ebolavirus
[45] = source organism: Influenza A virus (A/England/627/01(H1N2))
[46] = source organism: Escherichia coli O157:H7
[47] = source organism: Salmonella enterica subsp. enterica serovar Typhi
[48] = source organism: Mycolicibacterium gilvum
[49] = source organism: Shigella boydii
[50] = source organism: Mammarenavirus lassaense
[51] = source organism: Giardia lamblia ATCC 50803

EHFLGIWGL
Kd ([1]; source organism: Bacillus cereus H3081.97): 0.094 µM
Kd ([2]; source organism: Bacillus thuringiensis str. Al Hakam): 0.0179 µM

ELRSRYWAI
Kd [3, 37]: ≥ 20 µM
Kd [4, 37]: ≥ 20 µM
Kd [5, 37]: ≥ 20 µM
Kd [6, 37]: 0.151 µM
Kd [7, 37]: ≥ 20 µM
Kd [8, 37]: ≥ 20 µM
Kd [9, 37]: ≥ 20 µM
Kd [10, 37]: ≥ 20 µM
Kd [11, 37]: ≥ 20 µM
Kd [12]: ≥ 20 µM
Kd [13, 37]: ≥ 20 µM
Kd [14, 37]: 2.45 µM
Kd [15, 37]: ≥ 20 µM
Kd [16]: ≥ 20 µM
Kd [17, 37]: ≥ 20 µM
Kd [18, 37]: ≥ 20 µM
Kd [19]: ≥ 20 µM
Kd ([20]; source organism: Influenza A virus (A/81/HO)): ≥ 20 µM

EQYGPRHTL
Kd [21, 38]: 0.004 µM
Kd [1, 38]: 0.18 µM

FGSGWTWVV
Kd [6, 39]: 1.18 µM
Kd [22]: ≤ 0.001 µM
Kd [23]: ≤ 0.001 µM
Kd [18, 39]: 0.669 µM

GINWKHPKR
Kd [24, 40]: 1.57 µM
Kd [20, 40]: 0.199 µM

GTGAGVPSK
Kd [4, 41]: 0.0113 µM
Kd [8, 41]: 1.14 µM
Kd ([20]; source organism: Bacillus anthracis str. A0488): 0.644 µM

IPKRNRSIL
Kd [25, 42]: 0.268 µM
Kd [4, 43]: ≥ 20 µM
Kd [5, 43]: ≥ 20 µM
Kd [6, 43]: ≥ 20 µM
Kd [8, 43]: ≥ 20 µM
Kd [9, 43]: ≥ 20 µM
Kd [10, 43]: ≥ 20 µM
Kd [26, 43]: ≥ 20 µM
Kd [27, 43]: ≥ 20 µM
Kd [11, 42]: 0.015 µM
Kd [13, 43]: ≥ 20 µM
Kd [14, 43]: ≥ 20 µM
Kd [15, 43]: ≥ 20 µM
Kd [17, 43]: ≥ 20 µM
Kd [28, 43]: ≥ 20 µM
Kd [18, 43]: ≥ 20 µM

IWARTYFFK
Kd ([26]; source organism: Salmonella enterica subsp. enterica serovar Choleraesuis str. SC-B67): 0.296 µM

KIRSEELSF
IC50 [29]: ≥ 106 µM
IC50 [30, 44]: ≥ 173 µM
IC50 [31]: ≥ 91.7 µM

KMARLGKGY
Kd [25, 45]: ≥ 20 µM
Kd [5, 45]: ≥ 20 µM
Kd [6, 45]: ≥ 20 µM
Kd [8, 42]: 0.252 µM
Kd [9, 45]: ≥ 20 µM
Kd [10, 45]: ≥ 20 µM
Kd [26, 45]: ≥ 20 µM
Kd [11, 45]: ≥ 20 µM
Kd [13, 42]: 0.379 µM
Kd [15, 45]: ≥ 20 µM
Kd [17, 42]: 0.178 µM
Kd [28, 45]: ≥ 20 µM
Kd [18, 45]: ≥ 20 µM

LLKLWIDKV
Kd [4, 46]: ≥ 20 µM
Kd [5, 46]: ≥ 20 µM
Kd [8, 46]: ≥ 20 µM
Kd [9, 46]: ≥ 20 µM
Kd [10, 46]: ≥ 20 µM
Kd [26, 46]: ≥ 20 µM
Kd [27, 46]: ≥ 20 µM
Kd [11, 46]: ≥ 20 µM
Kd [13, 46]: ≥ 20 µM
Kd [14, 46]: ≥ 20 µM
Kd [17, 46]: ≥ 20 µM
Kd [28, 46]: ≥ 20 µM
Kd [18, 46]: 0.0367 µM

LYAYWYHLY
Kd [32]: 0.0008 µM

MTDAIRTLK
Kd [24, 47]: 0.134 µM
Kd [20, 47]: 2.31 µM
Kd [33]: ≥ 20 µM

PHDPDFLVL
Kd [3, 48]: ≥ 20 µM
Kd [5, 48]: ≥ 20 µM
Kd [6, 48]: ≥ 20 µM
Kd [7, 48]: ≥ 20 µM
Kd [8, 48]: ≥ 20 µM
Kd [9, 48]: ≥ 20 µM
Kd [34, 48]: ≥ 20 µM
Kd ([21]; source organism: Mycolicibacterium gilvum PYR-GCK): 6.76 µM
Kd [10, 48]: ≥ 20 µM
Kd [27, 48]: ≥ 20 µM
Kd [13, 48]: ≥ 20 µM
Kd [14, 48]: ≥ 20 µM
Kd [15, 48]: ≥ 20 µM
Kd [17, 48]: ≥ 20 µM
Kd [28, 48]: ≥ 20 µM
Kd [18, 48]: ≥ 20 µM

PLSRLFYPK
Kd [4, 49]: 0.129 µM
Kd [8, 49]: 0.649 µM
Kd [20, 49]: 0.0748 µM

RPSSSQIPS
IC50 ([30]; source organism: Sudan ebolavirus): 10.9 µM

RTRREAIVN
IC50 [30, 44]: ≥ 92.6 µM
IC50 [35]: ≥ 119 µM

RVIPVYQVN
IC50 [36]: ≥ 277 µM
IC50 [29]: 51.6 µM
IC50 [30, 44]: ≥ 151 µM
IC50 [31]: ≥ 72.8 µM
IC50 [35]: ≥ 87.2 µM

SHGIDVTDL
Kd [3, 50]: ≥ 20 µM
Kd [4, 50]: ≥ 20 µM
Kd [5, 50]: ≥ 20 µM
Kd [6, 50]: ≥ 20 µM
Kd [7, 50]: ≥ 20 µM
Kd [8, 50]: ≥ 20 µM
Kd [9, 50]: ≥ 20 µM
Kd [34, 50]: ≥ 20 µM
Kd [21, 50]: ≥ 20 µM
Kd [10, 50]: ≥ 20 µM
Kd [27, 50]: ≥ 20 µM
Kd [11, 50]: ≥ 20 µM
Kd [13, 50]: ≥ 20 µM
Kd [14, 50]: ≥ 20 µM
Kd [15, 50]: ≥ 20 µM
Kd [17, 50]: ≥ 20 µM
Kd [1, 50]: ≥ 20 µM
Kd [28, 50]: ≥ 20 µM
Kd [18, 50]: ≥ 20 µM

TVDSLSPLK
Kd [4, 51]: 0.0123 µM
Kd [8, 51]: 0.364 µM
Kd [20, 51]: ≥ 20 µM

VATAHGSTL
IC50 [29]: 12.7 µM
IC50 [30, 44]: ≥ 70.5 µM
IC50 [35]: ≥ 136 µM

YRYEFNNDW
Kd ([1]; source organism: Yersinia pestis CA88-4125): ≥ 20 µM
Kd ([2]; source organism: Yersinia pseudotuberculosis IP 31758): 0.996 µM

Reference: the Immune Epitope Database (IEDB)
